Reference: PMC11559061

T1: Fur (ferric uptake regulator) (Staphylococcus aureus) (UniProt A0A0H2XGT2)
T1 sequence: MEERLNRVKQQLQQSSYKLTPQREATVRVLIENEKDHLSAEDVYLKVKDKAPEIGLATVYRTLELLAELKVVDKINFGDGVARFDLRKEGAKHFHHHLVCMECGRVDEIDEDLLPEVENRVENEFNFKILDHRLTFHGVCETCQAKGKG

T2: purified S. aureus Fur (S. aureus) (UniProt P0A032)
T2 sequence: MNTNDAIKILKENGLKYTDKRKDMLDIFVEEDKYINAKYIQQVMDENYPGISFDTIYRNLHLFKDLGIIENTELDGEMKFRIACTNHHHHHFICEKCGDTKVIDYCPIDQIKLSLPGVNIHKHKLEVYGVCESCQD


Experiments:
[1] = biological target: T1, Fur (ferric uptake regulator) (Staphylococcus aureus); experiment: EMSA
[2] = biological target: T2, purified S. aureus Fur (S. aureus)

Molecule	binding [1]	EMSA: association of Fur (40 µM) with isdC operator DNA, Fpa titrated in (0-40 µM by the legend, 0-80 µM by the methods), with 100 µM MnCl2 [2]
CTTTAGTAAAATCATAAATAATAATGATTATCATTGTCAATATTTATTTTATAATCAATTTATTATTGTTATACGAAAATAGATGTGCTAGTATAATTGATAACCATTATCAATTGCAATGGTTAATC (double strand) [isdC operator (two Fur boxes), 128 bp PCR product]	binds	
purified S. aureus Fpa (natural protein) MAKQATMKNAALKQLTKDADEILHLIKVQLDNLTLPSCPLYEEVLDTQMFGLQKEVDFAVKLGLVDREDGKQIMLRLEKELSKLHEAFTLV		20 µM
